These results are taken from publication PMC7949124, “Metallo-β-lactamase domain-containing protein 2 is S-palmitoylated and exhibits acyl-CoA hydrolase activity” (The Journal of Biological Chemistry, 2020).

In general, Km refers to the substrate concentration at which the rate is half of its maximum. One may read the Vmax as the rate approached at saturating substrate.

Substitutions are numbered along the chain they refer to. Names may count otherwise.

Substrate in the series: CCCCCCCCCCCCCCCC(=O)SCCNC(=O)CCNC(=O)[C@H](O)C(C)(C)COP(=O)(O)OP(=O)(O)OC[C@H]1O[C@@H](n2cnc3c(N)ncnc32)[C@H](O)[C@@H]1OP(=O)(O)O
In words: radiometric acyl-CoA hydrolase assay, heptane extraction of [3H]-palmitate. Particulars: 30 °C, 10 min, 0.05% DDM, labelled compound ([3H] tracer diluted with unlabelled), fitted over 0-10 μM because of substrate inhibition, n = 4. The series is classed as biochemical, Homo sapiens. The source says:
radiometric acyl-CoA hydrolase assay, heptane extraction of [3H]-palmitate on MBLAC2

B1: MBLAC2 (Homo sapiens) (protein)
chain: MSALEWYAHKSLGDGIFWIQERFYESGNRANIWLVRGSEQDVVIDTGLGLRSLPEYLYSSGLLQDREAKEDAARRPLLAVATHVHFDHSGGLYQFDRVAVHHAEAEALARGDNFETVTWLSDSEVVRTPSPGWRARQFRVQAVQPTLILQDGDVINLGDRQLTVMHMPGHSRGSICLHDKDRKILFSGDVVYDGSLIDWLPYSRISDYVGTCERLIELVDRGLVEKVLPGHFNTFGAERLFRLASNYISKAGICHKVSTFAMRSLASLALRVTNSRTSP
notes: N-terminal hexahistidine tag, C-terminal FLAG; baculovirus/Sf9; zinc metalloenzyme; partly S-palmitoylated at Cys254
Take B1: the Michaelis-Menten constant (Km) was 1.9 ± 0.6 µM and the maximal velocity (Vmax) was 0.103 µmol/min/mg.

B2: MBLAC2 (Homo sapiens; C254A) (protein)
chain: B1 chain with C254A
notes: as for B1
With B2, the Michaelis-Menten constant (Km) was determined as 2.2 ± 0.7 µM and the Vmax was 0.0879 µmol/min/mg.
